Columns and labels:
[1] = biological target: human serum albumin (human) (UniProt P02768); experiment: sandwich ELISA, HSA-coated plate, control antibody at 1 µM, anti-FITC detection
[2] = biological target: interleukin-1 type 1 receptor (UniProt P14778); experiment: cell-based or functional assay
Chain of UniProt P14778 (P14778 18-569 limits assumed): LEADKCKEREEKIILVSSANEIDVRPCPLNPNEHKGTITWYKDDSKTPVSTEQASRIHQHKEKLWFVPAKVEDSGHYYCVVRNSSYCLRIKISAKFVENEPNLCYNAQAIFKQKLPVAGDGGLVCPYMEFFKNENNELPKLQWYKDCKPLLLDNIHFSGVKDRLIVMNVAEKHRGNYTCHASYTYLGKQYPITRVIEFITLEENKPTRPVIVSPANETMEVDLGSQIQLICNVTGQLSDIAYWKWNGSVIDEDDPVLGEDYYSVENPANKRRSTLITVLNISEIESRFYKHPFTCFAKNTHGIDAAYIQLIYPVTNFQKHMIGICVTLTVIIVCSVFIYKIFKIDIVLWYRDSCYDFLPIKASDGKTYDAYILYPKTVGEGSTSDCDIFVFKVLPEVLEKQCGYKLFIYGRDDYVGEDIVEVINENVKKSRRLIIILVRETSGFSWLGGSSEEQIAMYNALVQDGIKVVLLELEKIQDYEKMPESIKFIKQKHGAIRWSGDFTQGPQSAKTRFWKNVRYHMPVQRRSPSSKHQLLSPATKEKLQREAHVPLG

Row | Substance | OD600 [1] [OD600] | ND50 (neutralizing dose 50) of IL-1-induced IL-8 secretion by MRC-5 cells [2] [nM]
1 | FITC coupled antibody (negative control) | 0.049 | –
2 | recombinant human IL-1ra (from UniProt P18510 26-177) (ligand) | – | 0.5

Source: patent US20090214534A1
